One assay deals with human alpha-thrombin (human, UniProt P00734 328-622). Nature of the assay: cell-based or functional assay.
For the next assay, the target named is human Factor XIa (human, UniProt P03951 19-625). Nature of the assay: cell-based or functional assay.
The target in the next assay is T1, human Factor XIIa (human, UniProt P00748 20-615).
T1 sequence: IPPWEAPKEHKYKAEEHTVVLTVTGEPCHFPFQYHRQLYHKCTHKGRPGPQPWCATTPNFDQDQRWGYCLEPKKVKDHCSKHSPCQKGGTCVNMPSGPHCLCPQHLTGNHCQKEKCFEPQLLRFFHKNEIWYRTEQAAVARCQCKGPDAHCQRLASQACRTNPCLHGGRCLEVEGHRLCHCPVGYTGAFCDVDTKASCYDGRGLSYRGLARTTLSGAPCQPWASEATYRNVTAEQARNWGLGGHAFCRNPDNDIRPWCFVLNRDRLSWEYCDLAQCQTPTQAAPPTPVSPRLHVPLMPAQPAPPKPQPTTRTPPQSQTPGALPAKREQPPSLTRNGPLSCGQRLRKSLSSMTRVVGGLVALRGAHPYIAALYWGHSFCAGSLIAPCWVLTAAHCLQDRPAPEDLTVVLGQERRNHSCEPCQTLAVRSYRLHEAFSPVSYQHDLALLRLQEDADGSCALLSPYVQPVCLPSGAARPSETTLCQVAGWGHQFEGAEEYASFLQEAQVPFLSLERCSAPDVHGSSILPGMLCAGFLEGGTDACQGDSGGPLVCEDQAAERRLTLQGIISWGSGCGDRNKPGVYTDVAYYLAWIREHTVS
Nature of the assay: cell-based or functional assay.

The target in the next assay is human kallikrein (human, UniProt P03952 20-638). Nature of the assay: cell-based or functional assay.
The target of assay [1] is human activated protein C (human, UniProt P04070 43-461). Nature of the assay: cell-based or functional assay.
Another assay has as its target human plasmin (human, UniProt P00747 97-810). Nature of the assay: cell-based or functional assay.
Assay [2] deals with recombinant tissue plasminogen activator (human, UniProt P00750 36-562). Nature of the assay: cell-based or functional assay.
Another assay deals with human urokinase (human, UniProt P00749 156-431). Nature of the assay: cell-based or functional assay.
Assay [3] deals with bovine pancreatic chymotrypsin (bovine, UniProt P00766 1-245). Nature of the assay: cell-based or functional assay.
Another assay deals with human pancreatic trypsin (human, UniProt P07477 24-247). Nature of the assay: cell-based or functional assay.
In a further assay the target is human factor Xa (human, UniProt P00742 41-179; P00742 235-488). Nature of the assay: cell-based or functional assay.
Assay [4] concerns the target T2, rFVIIa/rTF/PLV complex (human, UniProt P08709 61-466; P13726 33-295).
T2 construct: Complex formed in HBSA with CaCl2 on phosphatidyl choline/phosphatidyl serine vesicles; also called fVIIa/TF; FVIIa/TF
Nature of the assay: rFVIIa/rTF/PLV amidolytic assay (S-2288), no FXa addition; apparent Ki*.

For assay [5], the target named is T2, rFVIIa/rTF/PLV complex. Nature of the assay: rFVIIa/rTF/PLV amidolytic assay (S-2288) plus 2.5 nM EGR-FXa; apparent Ki*.

T2 sequence (P08709 61-466 limits assumed, chain 1 of 2): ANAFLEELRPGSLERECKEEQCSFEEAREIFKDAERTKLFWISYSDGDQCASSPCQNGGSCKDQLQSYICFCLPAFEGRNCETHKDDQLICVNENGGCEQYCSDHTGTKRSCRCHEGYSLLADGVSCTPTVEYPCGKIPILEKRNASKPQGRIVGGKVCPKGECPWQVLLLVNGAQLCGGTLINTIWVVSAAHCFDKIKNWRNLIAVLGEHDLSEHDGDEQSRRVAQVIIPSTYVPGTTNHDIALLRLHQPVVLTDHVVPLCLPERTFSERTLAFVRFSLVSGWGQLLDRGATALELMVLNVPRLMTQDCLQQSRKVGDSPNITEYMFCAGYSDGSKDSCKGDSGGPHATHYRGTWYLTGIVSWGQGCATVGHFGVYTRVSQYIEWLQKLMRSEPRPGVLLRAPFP
T2 sequence (P13726 33-295 limits assumed, chain 2 of 2): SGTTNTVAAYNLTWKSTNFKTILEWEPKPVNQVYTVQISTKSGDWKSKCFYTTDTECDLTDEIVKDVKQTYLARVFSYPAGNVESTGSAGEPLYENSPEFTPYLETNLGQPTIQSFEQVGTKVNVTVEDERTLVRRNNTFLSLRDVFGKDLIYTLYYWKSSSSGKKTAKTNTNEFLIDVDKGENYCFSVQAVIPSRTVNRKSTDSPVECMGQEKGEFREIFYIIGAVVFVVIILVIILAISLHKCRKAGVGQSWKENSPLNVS
Chain of human kallikrein (P03952 20-638 limits assumed): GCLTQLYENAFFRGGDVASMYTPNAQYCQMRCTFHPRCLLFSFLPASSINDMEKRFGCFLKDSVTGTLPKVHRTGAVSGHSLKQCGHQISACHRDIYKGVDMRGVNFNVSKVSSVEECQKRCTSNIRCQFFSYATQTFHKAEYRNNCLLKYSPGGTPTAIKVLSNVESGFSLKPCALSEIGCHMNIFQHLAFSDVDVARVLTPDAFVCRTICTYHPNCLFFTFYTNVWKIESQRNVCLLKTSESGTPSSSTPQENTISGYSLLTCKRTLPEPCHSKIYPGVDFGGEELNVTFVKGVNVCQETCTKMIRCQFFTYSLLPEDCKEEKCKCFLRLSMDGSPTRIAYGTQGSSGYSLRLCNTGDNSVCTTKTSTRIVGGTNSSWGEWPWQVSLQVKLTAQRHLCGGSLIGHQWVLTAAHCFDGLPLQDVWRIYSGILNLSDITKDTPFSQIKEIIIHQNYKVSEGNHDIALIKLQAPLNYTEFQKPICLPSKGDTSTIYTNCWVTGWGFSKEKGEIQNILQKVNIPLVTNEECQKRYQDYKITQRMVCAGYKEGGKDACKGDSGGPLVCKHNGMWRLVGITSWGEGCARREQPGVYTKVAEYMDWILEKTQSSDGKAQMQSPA
Chain of recombinant tissue plasminogen activator (P00750 36-562 limits assumed): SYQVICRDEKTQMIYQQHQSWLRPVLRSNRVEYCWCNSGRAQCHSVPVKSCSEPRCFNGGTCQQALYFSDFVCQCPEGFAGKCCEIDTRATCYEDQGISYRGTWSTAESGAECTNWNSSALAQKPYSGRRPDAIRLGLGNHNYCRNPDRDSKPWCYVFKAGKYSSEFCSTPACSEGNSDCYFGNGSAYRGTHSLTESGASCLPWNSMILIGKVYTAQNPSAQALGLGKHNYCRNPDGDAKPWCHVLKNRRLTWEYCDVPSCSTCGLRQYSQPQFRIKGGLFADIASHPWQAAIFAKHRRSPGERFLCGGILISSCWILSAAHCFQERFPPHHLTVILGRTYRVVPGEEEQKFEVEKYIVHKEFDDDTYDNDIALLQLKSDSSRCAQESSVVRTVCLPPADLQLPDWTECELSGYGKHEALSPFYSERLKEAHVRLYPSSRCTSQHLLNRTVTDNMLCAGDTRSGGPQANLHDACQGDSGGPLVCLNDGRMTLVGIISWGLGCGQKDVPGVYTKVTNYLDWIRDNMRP
Chain of human plasmin (P00747 97-810 limits assumed): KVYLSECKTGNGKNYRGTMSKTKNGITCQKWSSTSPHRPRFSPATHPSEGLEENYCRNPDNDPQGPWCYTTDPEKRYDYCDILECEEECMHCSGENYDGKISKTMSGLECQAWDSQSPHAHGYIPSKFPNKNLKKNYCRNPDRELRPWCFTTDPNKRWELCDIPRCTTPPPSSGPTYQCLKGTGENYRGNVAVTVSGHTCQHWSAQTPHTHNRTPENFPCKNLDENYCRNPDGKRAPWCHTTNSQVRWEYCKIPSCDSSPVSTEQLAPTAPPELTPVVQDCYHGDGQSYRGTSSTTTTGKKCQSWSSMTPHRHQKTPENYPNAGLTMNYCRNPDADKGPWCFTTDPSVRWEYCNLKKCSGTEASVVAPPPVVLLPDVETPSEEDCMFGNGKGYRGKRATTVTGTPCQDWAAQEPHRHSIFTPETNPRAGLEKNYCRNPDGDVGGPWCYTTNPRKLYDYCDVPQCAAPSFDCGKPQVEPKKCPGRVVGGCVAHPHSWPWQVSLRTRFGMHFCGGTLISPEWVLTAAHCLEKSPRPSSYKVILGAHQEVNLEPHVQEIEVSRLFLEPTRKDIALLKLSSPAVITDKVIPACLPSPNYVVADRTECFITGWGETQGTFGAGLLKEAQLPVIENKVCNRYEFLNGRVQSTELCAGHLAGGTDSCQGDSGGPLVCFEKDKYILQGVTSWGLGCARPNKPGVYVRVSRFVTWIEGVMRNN
Chain of human factor Xa (P00742 41-179 limits assumed, chain 1 of 2): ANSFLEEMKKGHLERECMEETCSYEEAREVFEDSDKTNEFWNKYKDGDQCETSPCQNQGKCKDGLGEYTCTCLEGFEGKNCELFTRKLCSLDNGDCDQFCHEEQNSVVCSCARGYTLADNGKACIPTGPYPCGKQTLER
Chain of human factor Xa (P00742 235-488 limits assumed, chain 2 of 2): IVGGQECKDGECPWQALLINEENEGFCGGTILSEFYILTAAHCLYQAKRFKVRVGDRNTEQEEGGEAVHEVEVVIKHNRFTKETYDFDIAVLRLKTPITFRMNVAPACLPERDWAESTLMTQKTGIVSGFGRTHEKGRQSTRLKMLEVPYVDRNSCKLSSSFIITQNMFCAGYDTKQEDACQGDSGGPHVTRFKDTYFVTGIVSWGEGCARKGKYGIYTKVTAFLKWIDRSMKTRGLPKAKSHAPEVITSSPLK

B1: recombinant AceNAP4 (other)
chain: KPNNVMTNACGLNEYFAECGNMKECEHRCNEEENEERDEERITACLIRVCFRPGACVCKDGFYRNRTGSCVEEDDCEYENMEFITFAPEVPICGSNERYSDCGNDKQCERKCNEDDYEKGDEACRSHVCERPGACVCEDGFYRNKKGSCVESDDCEYDNMDFITFAPETSR
notes: Two NAP domains
On to B1, for which the “% Control Velocity (amidolytic activity; 75 nM NAP, 750 pM enzyme)” value in the assay with human alpha-thrombin is 93%; with human Factor XIa it was 96%; with human Factor XIIa, 102%; in the assay with human kallikrein, 32%; in assay [1] it was 103%; in the assay with human plasmin, 100%. Moreover, the “% Control Velocity (amidolytic activity; 75 nM NAP, 750 pM enzyme)” value in assay [2] worked out at 108%; in the assay with human urokinase, 103%; in assay [3], 96%; with human pancreatic trypsin, 98%; with human factor Xa, 76%. In addition, the figures for the Ki with rFVIIa/rTF/PLV complex [4] and in the assay with rFVIIa/rTF/PLV complex [5] were 59.2 nM and 0.378 nM, respectively.

Source of the values: patent US6872808 (CORVAS INTERNATIONAL, dated 2005).
